Measurements as given in publication PMC12635182.

Biological target: aSyn-VC (alpha-synuclein fused in front of the C-terminal fragment of Venus) (UniProt P37840)

cells with fewer VN-Sph1 + aSyn-VC inclusions than with WT Sph1 (HEK 293, counted by microscopy): 40%
Substance: VN-Sph1 K527A (from UniProt Q9Y6H5 1-919) (natural protein)
